Measured values reported in PMC6188088.

How the values were obtained:
[1] = molecular target: TnpA^IS1535 C-terminal domain (CTD), residues 51-193 (Mycobacterium tuberculosis); test: crystal structure; TnpA^IS1535 CTD (51-193), hanging drop, 0.3 M sodium acetate pH 5.0, 1 mM TCEP mixed with 0.2 M sodium citrate + 20% PEG3350; 2.5 Å; one dimer in the asymmetric unit
[2] = molecular target: TnpA^IS1535 single-cysteine mutant Cys162 (three native cysteines replaced with serines) (Mycobacterium tuberculosis); test: cross-linking; disulfide cross-linking of cysteine-substituted TnpA^IS1535: oxidation with 0.2 mM diamide at 4°C overnight in 25 mM HEPES pH 7.5, 1 M Na acetate, 20% glycerol; non-reducing SDS-PAGE

Substance	stoichiometry N [1]	percent disulfide-linked dimers [2] [%]
TnpA^IS1535 C-terminal domain (CTD), residues 51-193 (domain or fragment)	2	–
TnpA^IS1535 single-cysteine mutant Cys162 (three native cysteines replaced with serines) (enzyme)	–	40
